Assay results taken from the supplement of paper PMC9112550, “Optimization of the antimicrobial peptide Bac7 by deep mutational scanning” (BMC Biology, 2022).

System: Escherichia coli TOP10
Assay: shrunken log2 fold change of peptide-encoding DNA abundance (4.5 h post-induction vs induction); higher = less antimicrobial activity (less host growth inhibition)
Conditions: time post-induction: 4.5 h; library: site-saturation at positions 5, 18, 19, 20
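Also: peptides expressed intracellularly from a pBAD plasmid library in pooled LB shake-flask culture, induced with 0.3% L-arabinose, DNA abundance read by NGS, three biological replicates, DESeq2 with apeglm shrinkage.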

Row | Sequence | shrunken log2 fold change
1 | RRIRFRPPRLPRPRPRPEGEPRP | -0.0563
2 | RRIRIRPPRLPRPRPRPITQPRP | -0.186
3 | RRIRMRPPRLPRPRPRPQNPPRP | 0.26
4 | RRIRCRPPRLPRPRPRPAMTPRP | -0.0039
5 | RRIRERPPRLPRPRPRPKDEPRP | -0.379
6 | RRIRDRPPRLPRPRPRPYYRPRP | -0.163
7 | RRIRLRPPRLPRPRPRPPDVPRP | -0.0115
8 | RRIRRRPPRLPRPRPRPTQDPRP | 1.87
9 | RRIRTRPPRLPRPRPRPLKCPRP | -0.249
10 | RRIRERPPRLPRPRPRPTESPRP | 5.08
11 | RRIRHRPPRLPRPRPRPNIAPRP | -0.112
12 | RRIRKRPPRLPRPRPRPYWEPRP | 0.0616
13 | RRIRPRPPRLPRPRPRPKDQPRP | 0.111
14 | RRIRERPPRLPRPRPRPPNAPRP | 0.186
15 | RRIRGRPPRLPRPRPRPWRTPRP | -0.0149
16 | RRIRVRPPRLPRPRPRPSDVPRP | -0.184
17 | RRIRKRPPRLPRPRPRPMRVPRP | 0.848
18 | RRIRHRPPRLPRPRPRPTNQPRP | -0.425
19 | RRIRLRPPRLPRPRPRPRICPRP | -0.237
20 | RRIRWRPPRLPRPRPRPVHAPRP | 0.109
21 | RRIRSRPPRLPRPRPRPGERPRP | 0.637
22 | RRIRFRPPRLPRPRPRPDQSPRP | 0.0148
23 | RRIRKRPPRLPRPRPRPNKKPRP | -0.279
24 | RRIRWRPPRLPRPRPRPNQCPRP | -0.384
25 | RRIRERPPRLPRPRPRPLSKPRP | -0.579

Row | Sequence | shrunken log2 fold change
26 | RRIRYRPPRLPRPRPRPVERPRP | 0.00806
27 | RRIRIRPPRLPRPRPRPNAMPRP | -0.0812
28 | RRIRGRPPRLPRPRPRPESHPRP | 0.124
29 | RRIRDRPPRLPRPRPRPLLIPRP | 0.338
30 | RRIRHRPPRLPRPRPRPHAVPRP | -0.0488
31 | RRIRRRPPRLPRPRPRPVNSPRP | -0.0287
32 | RRIRKRPPRLPRPRPRPSKHPRP | 0.0908
33 | RRIRARPPRLPRPRPRPMNTPRP | 0.0292
34 | RRIRARPPRLPRPRPRPAQNPRP | 0.333
35 | RRIRPRPPRLPRPRPRPSHCPRP | -0.666
36 | RRIRYRPPRLPRPRPRPNDAPRP | 0.011
37 | RRIRYRPPRLPRPRPRPPDAPRP | 0.0465
38 | RRIRMRPPRLPRPRPRPNQNPRP | 0.079
39 | RRIRMRPPRLPRPRPRPISLPRP | 0.0356
40 | RRIRNRPPRLPRPRPRPAYVPRP | -0.0369
41 | RRIRSRPPRLPRPRPRPQFHPRP | -0.206
42 | RRIRDRPPRLPRPRPRPFCNPRP | -0.0411
43 | RRIRDRPPRLPRPRPRPMWSPRP | -0.0459
44 | RRIRSRPPRLPRPRPRPRQRPRP | 0.293
45 | RRIRTRPPRLPRPRPRPNWNPRP | -0.335
46 | RRIRWRPPRLPRPRPRPAMKPRP | -0.0119
47 | RRIRNRPPRLPRPRPRPTVGPRP | -0.0817
48 | RRIRMRPPRLPRPRPRPNNNPRP | -0.134
49 | RRIRERPPRLPRPRPRPASFPRP | -0.285
50 | RRIRIRPPRLPRPRPRPNWVPRP | -0.231

Row | Sequence | shrunken log2 fold change
51 | RRIRSRPPRLPRPRPRPLWFPRP | 0.274
52 | RRIRTRPPRLPRPRPRPGQVPRP | -0.0192
53 | RRIRRRPPRLPRPRPRPGRVPRP | 0.593
54 | RRIRHRPPRLPRPRPRPFEMPRP | -0.505
55 | RRIRARPPRLPRPRPRPIQFPRP | 0.166
56 | RRIRPRPPRLPRPRPRPYEVPRP | -0.125
57 | RRIRFRPPRLPRPRPRPGGPPRP | 0.511
58 | RRIRHRPPRLPRPRPRPHAGPRP | -0.245
59 | RRIRMRPPRLPRPRPRPFFGPRP | -0.0869
60 | RRIRHRPPRLPRPRPRPYYQPRP | -0.416
61 | RRIRDRPPRLPRPRPRPNENPRP | -0.177
62 | RRIRCRPPRLPRPRPRPMFPPRP | -0.511
63 | RRIRFRPPRLPRPRPRPTNTPRP | -0.414
64 | RRIRARPPRLPRPRPRPERRPRP | 0.77
65 | RRIRYRPPRLPRPRPRPPRHPRP | 0.00412
66 | RRIRKRPPRLPRPRPRPHGFPRP | 0.056
67 | RRIRPRPPRLPRPRPRPWRQPRP | 0.0206
68 | RRIRDRPPRLPRPRPRPWTDPRP | 0.023
69 | RRIRRRPPRLPRPRPRPSASPRP | 0.101
70 | RRIRGRPPRLPRPRPRPPMWPRP | 1.1
71 | RRIRDRPPRLPRPRPRPTRDPRP | 0.734
72 | RRIRIRPPRLPRPRPRPYVVPRP | -1.54
73 | RRIRCRPPRLPRPRPRPERKPRP | 0.086
74 | RRIRARPPRLPRPRPRPGWQPRP | 0.0839
75 | RRIRGRPPRLPRPRPRPMGIPRP | 0.0179

Row | Sequence | shrunken log2 fold change
76 | RRIRTRPPRLPRPRPRPVCVPRP | 0.182
77 | RRIRHRPPRLPRPRPRPVAYPRP | -0.332
78 | RRIRFRPPRLPRPRPRPFMCPRP | -0.98
79 | RRIRIRPPRLPRPRPRPMDNPRP | -0.096
80 | RRIRRRPPRLPRPRPRPCFHPRP | -0.00606
81 | RRIRDRPPRLPRPRPRPKHFPRP | -0.15
82 | RRIRWRPPRLPRPRPRPYLEPRP | -0.112
83 | RRIRTRPPRLPRPRPRPHKRPRP | -0.0155
84 | RRIRNRPPRLPRPRPRPQACPRP | -0.0265
85 | RRIRCRPPRLPRPRPRPGTVPRP | -0.339
86 | RRIRWRPPRLPRPRPRPRTAPRP | 0.564
87 | RRIRPRPPRLPRPRPRPETRPRP | 0.187
88 | RRIRRRPPRLPRPRPRPWHFPRP | 0.121
89 | RRIRPRPPRLPRPRPRPFDIPRP | -0.395
90 | RRIRNRPPRLPRPRPRPVMLPRP | -0.171
91 | RRIRHRPPRLPRPRPRPKKPPRP | -0.125
92 | RRIRNRPPRLPRPRPRPVAGPRP | -0.124
93 | RRIRHRPPRLPRPRPRPHVTPRP | -0.373
94 | RRIRPRPPRLPRPRPRPPEWPRP | 0.443
95 | RRIRKRPPRLPRPRPRPAEWPRP | 0.0965
96 | RRIRPRPPRLPRPRPRPEFPPRP | -0.00714
97 | RRIRLRPPRLPRPRPRPVGLPRP | 0.144
98 | RRIRTRPPRLPRPRPRPQPHPRP | -0.0402
99 | RRIRGRPPRLPRPRPRPISIPRP | 0.199
100 | RRIRERPPRLPRPRPRPDDHPRP | -0.284

Row | Sequence | shrunken log2 fold change
101 | RRIRDRPPRLPRPRPRPTEVPRP | 0.121
102 | RRIRCRPPRLPRPRPRPTSGPRP | 0.285
103 | RRIRIRPPRLPRPRPRPVVQPRP | -1.04
104 | RRIRHRPPRLPRPRPRPITKPRP | -0.107
105 | RRIRQRPPRLPRPRPRPHHRPRP | 0.104
106 | RRIRYRPPRLPRPRPRPSSIPRP | -0.141
107 | RRIRDRPPRLPRPRPRPLSGPRP | -0.0838
108 | RRIRFRPPRLPRPRPRPSPFPRP | 0.0724
109 | RRIRWRPPRLPRPRPRPGFAPRP | 0.382
110 | RRIRFRPPRLPRPRPRPDTEPRP | -0.776
111 | RRIRNRPPRLPRPRPRPYAPPRP | -0.702
112 | RRIRLRPPRLPRPRPRPIWVPRP | -0.0362
113 | RRIRIRPPRLPRPRPRPRKWPRP | 0.0966
114 | RRIRSRPPRLPRPRPRPMAGPRP | 0.119
115 | RRIRSRPPRLPRPRPRPMYGPRP | -0.844
116 | RRIRERPPRLPRPRPRPFAFPRP | -0.0942
117 | RRIRCRPPRLPRPRPRPNMQPRP | -0.423
118 | RRIRMRPPRLPRPRPRPICVPRP | 0.196
119 | RRIRIRPPRLPRPRPRPANKPRP | -0.222
120 | RRIRVRPPRLPRPRPRPIKSPRP | -0.184
121 | RRIRGRPPRLPRPRPRPQRGPRP | 0.119
122 | RRIRMRPPRLPRPRPRPYCLPRP | 0.146
123 | RRIRKRPPRLPRPRPRPMRKPRP | 1.44
124 | RRIRPRPPRLPRPRPRPFAVPRP | -0.113
125 | RRIRQRPPRLPRPRPRPGSIPRP | -0.218
